Among the data in patent US20240018502A1 are EC50 hC3 cleavage and EC50 of hC3 cleavage values, retold here.

The labels stand for the following.
B1: MTSP-1 protease domain I41S/F99L/C122S/G151N/Q175M/Q192G/D217V (enzyme)
chain: VVGGTDADEGEWPWQVSLHALGQGHSCGASLISPNWLVSAAHCYIDDRGFRYSDPTQWTAFLGLHDQSQRSAPGVQERRLKRIISHPFFNDFTLDYDIALLELEKPAEYSSMVRPISLPDASHVFPAGKAIWVTGWGHTQYGGTNALILQKGEIRVINQTTCENLLPQMITPRMMCVGFLSGGVDSCGGDSGGPLSSVEADGRIFQAGVVSWGVGCAQRNKPGVYTRLPLFRDWIKENTGV
B2: MTSP-1 protease domain I41G/F97R/F99L/C122S/G151N/Q175L/Q192S/D217V (enzyme)
chain: VVGGTDADEGEWPWQVSLHALGQGHGCGASLISPNWLVSAAHCYIDDRGFRYSDPTQWTAFLGLHDQSQRSAPGVQERRLKRIISHPFFNDRTLDYDIALLELEKPAEYSSMVRPISLPDASHVFPAGKAIWVTGWGHTQYGGTNALILQKGEIRVINQTTCENLLPQLITPRMMCVGFLSGGVDSCSGDSGGPLSSVEADGRIFQAGVVSWGVGCAQRNKPGVYTRLPLFRDWIKENTGV
B3: MTSP-1 protease domain I41D/F97T/F99M/C122S/Q192V/D217M (enzyme)
chain: VVGGTDADEGEWPWQVSLHALGQGHDCGASLISPNWLVSAAHCYIDDRGFRYSDPTQWTAFLGLHDQSQRSAPGVQERRLKRIISHPFFNDTTMDYDIALLELEKPAEYSSMVRPISLPDASHVFPAGKAIWVTGWGHTQYGGTGALILQKGEIRVINQTTCENLLPQQITPRMMCVGFLSGGVDSCVGDSGGPLSSVEADGRIFQAGVVSWGMGCAQRNKPGVYTRLPLFRDWIKENTGV
B4: MTSP-1 protease domain I41T/F97L/F99L/C122S/G151N/Q175S/Q192S/D217W (enzyme)
chain: VVGGTDADEGEWPWQVSLHALGQGHTCGASLISPNWLVSAAHCYIDDRGFRYSDPTQWTAFLGLHDQSQRSAPGVQERRLKRIISHPFFNDLTLDYDIALLELEKPAEYSSMVRPISLPDASHVFPAGKAIWVTGWGHTQYGGTNALILQKGEIRVINQTTCENLLPQSITPRMMCVGFLSGGVDSCSGDSGGPLSSVEADGRIFQAGVVSWGWGCAQRNKPGVYTRLPLFRDWIKENTGV
B5: MTSP-1 protease domain I41S/F97S/F99L/C122S/G151N/Q175L/Q192A/D217L (enzyme)
chain: VVGGTDADEGEWPWQVSLHALGQGHSCGASLISPNWLVSAAHCYIDDRGFRYSDPTQWTAFLGLHDQSQRSAPGVQERRLKRIISHPFFNDSTLDYDIALLELEKPAEYSSMVRPISLPDASHVFPAGKAIWVTGWGHTQYGGTNALILQKGEIRVINQTTCENLLPQLITPRMMCVGFLSGGVDSCAGDSGGPLSSVEADGRIFQAGVVSWGLGCAQRNKPGVYTRLPLFRDWIKENTGV
B6: MTSP-1 protease domain I41S/F97L/F99L/C122S/G151N/Q192G/D217V (enzyme)
chain: VVGGTDADEGEWPWQVSLHALGQGHSCGASLISPNWLVSAAHCYIDDRGFRYSDPTQWTAFLGLHDQSQRSAPGVQERRLKRIISHPFFNDLTLDYDIALLELEKPAEYSSMVRPISLPDASHVFPAGKAIWVTGWGHTQYGGTNALILQKGEIRVINQTTCENLLPQQITPRMMCVGFLSGGVDSCGGDSGGPLSSVEADGRIFQAGVVSWGVGCAQRNKPGVYTRLPLFRDWIKENTGV
B7: MTSP-1 protease domain I41S/D96K/F97G/ins97aV/T98P/F99L/C122S/Q175H/Q192D (enzyme)
chain: VVGGTDADEGEWPWQVSLHALGQGHSCGASLISPNWLVSAAHCYIDDRGFRYSDPTQWTAFLGLHDQSQRSAPGVQERRLKRIISHPFFNKGVPLDYDIALLELEKPAEYSSMVRPISLPDASHVFPAGKAIWVTGWGHTQYGGTGALILQKGEIRVINQTTCENLLPQHITPRMMCVGFLSGGVDSCDGDSGGPLSSVEADGRIFQAGVVSWGDGCAQRNKPGVYTRLPLFRDWIKENTGV
B8: MTSP-1 protease domain I41S/D96K/F97G/ins97aV/T98P/F99L/C122S/Q192V (enzyme)
chain: VVGGTDADEGEWPWQVSLHALGQGHSCGASLISPNWLVSAAHCYIDDRGFRYSDPTQWTAFLGLHDQSQRSAPGVQERRLKRIISHPFFNKGVPLDYDIALLELEKPAEYSSMVRPISLPDASHVFPAGKAIWVTGWGHTQYGGTGALILQKGEIRVINQTTCENLLPQQITPRMMCVGFLSGGVDSCVGDSGGPLSSVEADGRIFQAGVVSWGDGCAQRNKPGVYTRLPLFRDWIKENTGV
B9: MTSP-1 protease domain I41S/ins97aV/C122S/N164D/Q192G/R235L (enzyme)
chain: VVGGTDADEGEWPWQVSLHALGQGHSCGASLISPNWLVSAAHCYIDDRGFRYSDPTQWTAFLGLHDQSQRSAPGVQERRLKRIISHPFFNDFVTFDYDIALLELEKPAEYSSMVRPISLPDASHVFPAGKAIWVTGWGHTQYGGTGALILQKGEIRVIDQTTCENLLPQQITPRMMCVGFLSGGVDSCGGDSGGPLSSVEADGRIFQAGVVSWGDGCAQRNKPGVYTRLPLFLDWIKENTGV
B10: MTSP-1 protease domain I41S/Y59F/ins97aV/C122S/Q192G/N223D (enzyme)
chain: VVGGTDADEGEWPWQVSLHALGQGHSCGASLISPNWLVSAAHCFIDDRGFRYSDPTQWTAFLGLHDQSQRSAPGVQERRLKRIISHPFFNDFVTFDYDIALLELEKPAEYSSMVRPISLPDASHVFPAGKAIWVTGWGHTQYGGTGALILQKGEIRVINQTTCENLLPQQITPRMMCVGFLSGGVDSCGGDSGGPLSSVEADGRIFQAGVVSWGDGCAQRDKPGVYTRLPLFRDWIKENTGV
B11: MTSP-1 protease domain I41S/Y59F/F97Y/ins97aV/C122S/Q192G (enzyme)
chain: VVGGTDADEGEWPWQVSLHALGQGHSCGASLISPNWLVSAAHCFIDDRGFRYSDPTQWTAFLGLHDQSQRSAPGVQERRLKRIISHPFFNDYVTFDYDIALLELEKPAEYSSMVRPISLPDASHVFPAGKAIWVTGWGHTQYGGTGALILQKGEIRVINQTTCENLLPQQITPRMMCVGFLSGGVDSCGGDSGGPLSSVEADGRIFQAGVVSWGDGCAQRNKPGVYTRLPLFRDWIKENTGV
B12: MTSP-1 protease domain I41S/ins97aV/C122S/N164D/Q192G/R235H (enzyme)
chain: VVGGTDADEGEWPWQVSLHALGQGHSCGASLISPNWLVSAAHCYIDDRGFRYSDPTQWTAFLGLHDQSQRSAPGVQERRLKRIISHPFFNDFVTFDYDIALLELEKPAEYSSMVRPISLPDASHVFPAGKAIWVTGWGHTQYGGTGALILQKGEIRVIDQTTCENLLPQQITPRMMCVGFLSGGVDSCGGDSGGPLSSVEADGRIFQAGVVSWGDGCAQRNKPGVYTRLPLFHDWIKENTGV
B13: MTSP-1 Q38H/I41S/D96K/F97G/ins97aV/T98P/F99L/C122S/Q192D (enzyme)
chain: VVGGTDADEGEWPWQVSLHALGHGHSCGASLISPNWLVSAAHCYIDDRGFRYSDPTQWTAFLGLHDQSQRSAPGVQERRLKRIISHPFFNKGVPLDYDIALLELEKPAEYSSMVRPISLPDASHVFPAGKAIWVTGWGHTQYGGTGALILQKGEIRVINQTTCENLLPQQITPRMMCVGFLSGGVDSCDGDSGGPLSSVEADGRIFQAGVVSWGDGCAQRNKPGVYTRLPLFRDWIKENTGV
B14: MTSP-1 Q38H/I41S/D60bT/F60eS/Y60gW/D96K/F97G/ins97aV/T98P/F99L/C122S/G151H/Q192D (enzyme)
chain: VVGGTDADEGEWPWQVSLHALGHGHSCGASLISPNWLVSAAHCYIDTRGSRWSDPTQWTAFLGLHDQSQRSAPGVQERRLKRIISHPFFNKGVPLDYDIALLELEKPAEYSSMVRPISLPDASHVFPAGKAIWVTGWGHTQYGGTHALILQKGEIRVINQTTCENLLPQQITPRMMCVGFLSGGVDSCDGDSGGPLSSVEADGRIFQAGVVSWGDGCAQRNKPGVYTRLPLFRDWIKENTGV

plasma purified human complement protein C3 (human), sequence (P01024 23-667, chain 1 of 2): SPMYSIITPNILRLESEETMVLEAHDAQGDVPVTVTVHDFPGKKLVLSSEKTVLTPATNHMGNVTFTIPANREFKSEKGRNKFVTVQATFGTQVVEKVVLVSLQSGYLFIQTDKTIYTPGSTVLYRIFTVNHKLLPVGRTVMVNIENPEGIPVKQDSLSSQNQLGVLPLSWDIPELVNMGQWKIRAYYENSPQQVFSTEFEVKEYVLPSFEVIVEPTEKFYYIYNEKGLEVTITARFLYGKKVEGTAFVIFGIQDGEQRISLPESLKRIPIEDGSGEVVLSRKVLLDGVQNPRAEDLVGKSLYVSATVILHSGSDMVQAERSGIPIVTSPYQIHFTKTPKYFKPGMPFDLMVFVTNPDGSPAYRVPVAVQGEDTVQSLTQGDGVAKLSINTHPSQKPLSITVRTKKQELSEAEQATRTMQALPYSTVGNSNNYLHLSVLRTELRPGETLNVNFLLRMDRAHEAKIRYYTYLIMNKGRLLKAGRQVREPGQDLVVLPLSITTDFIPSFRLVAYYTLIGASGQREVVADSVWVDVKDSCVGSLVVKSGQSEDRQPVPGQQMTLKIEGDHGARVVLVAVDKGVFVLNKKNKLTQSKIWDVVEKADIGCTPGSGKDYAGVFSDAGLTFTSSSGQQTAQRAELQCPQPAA
plasma purified human complement protein C3 (human), sequence (P01024 672-1663, chain 2 of 2): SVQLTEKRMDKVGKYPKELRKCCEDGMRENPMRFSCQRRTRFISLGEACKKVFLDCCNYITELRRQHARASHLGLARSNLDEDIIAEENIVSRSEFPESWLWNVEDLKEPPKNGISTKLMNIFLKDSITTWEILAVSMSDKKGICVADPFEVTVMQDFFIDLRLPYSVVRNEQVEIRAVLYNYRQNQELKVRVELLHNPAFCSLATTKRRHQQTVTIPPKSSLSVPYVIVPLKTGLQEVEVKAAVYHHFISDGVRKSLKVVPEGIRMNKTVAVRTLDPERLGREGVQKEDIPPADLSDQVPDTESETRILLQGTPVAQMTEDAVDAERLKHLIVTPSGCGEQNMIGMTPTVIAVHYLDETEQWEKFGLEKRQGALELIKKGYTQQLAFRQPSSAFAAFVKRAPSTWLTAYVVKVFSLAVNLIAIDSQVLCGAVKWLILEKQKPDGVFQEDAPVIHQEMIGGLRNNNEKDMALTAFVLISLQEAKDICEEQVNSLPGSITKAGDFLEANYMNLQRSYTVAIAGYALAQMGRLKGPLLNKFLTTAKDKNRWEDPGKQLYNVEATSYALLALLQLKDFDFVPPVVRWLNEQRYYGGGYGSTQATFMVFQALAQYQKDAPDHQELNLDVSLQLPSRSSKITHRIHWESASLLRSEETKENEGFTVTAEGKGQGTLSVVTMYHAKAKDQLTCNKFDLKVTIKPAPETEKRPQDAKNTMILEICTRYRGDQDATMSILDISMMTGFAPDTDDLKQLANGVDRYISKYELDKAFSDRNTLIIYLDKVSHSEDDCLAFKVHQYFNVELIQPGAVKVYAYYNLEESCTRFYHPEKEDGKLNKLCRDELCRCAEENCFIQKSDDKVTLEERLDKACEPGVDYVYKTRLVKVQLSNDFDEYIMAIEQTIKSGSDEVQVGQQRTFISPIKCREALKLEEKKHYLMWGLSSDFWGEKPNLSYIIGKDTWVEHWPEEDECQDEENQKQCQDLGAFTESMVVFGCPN

This experiment concerns the target plasma purified human complement protein C3 (human) (UniProt P01024). The experiment in a line: cell-based or functional assay.
Regarding B1, the EC50 hC3 cleavage amounted to 3.19 nM.
Same read-out and setting: then B2, with 4.18 nM; and B3, with 63.8 nM.
For B4, the EC50 hC3 cleavage was 24.2 nM.
The same measure, in the same setting: under B5 stands 11.2 nM.
Regarding B6, the EC50 hC3 cleavage was determined as 11.9 nM.
B7: the EC50 hC3 cleavage is 195 nM.
B8 had an EC50 hC3 cleavage of 32.3 nM.
On the same count and under the same terms, under B9 stands 49.7 nM.
The molecule B10 gave an EC50 hC3 cleavage of 34.1 nM.
As for B11, the EC50 hC3 cleavage was 29.1 nM.
Same read-out and setting: then B12, with 46.4 nM.
On to B13, for which the EC50 of hC3 cleavage came out at 108 nM.
In the case of B14, the EC50 of hC3 cleavage was determined as 19.9 nM.
